For one data set, the system named is biotinyl-Phe-oxazolone. Nature of the data set: self-aminoacylation, catalytic enhancement (BFO) (fold over background); higher = more active; k-Seq, kA / k0A0; sequences stand for … in GGGAAUGGAUCCACAUCUACGAAUUC…UUCACUGCAGACUUGACGAAGCUG
Put shortly:
(§1)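 The uncatalyzed rate is the low-activity peak of a bimodal Gaussian fit, and catalytic enhancement is median kA divided by it. The kA values came from pseudo-first-order fits, with 1000 bootstraps, of per-sequence fraction reacted measured by streptavidin capture, triplicate qPCR and Illumina sequencing. Mutagenized RNA pools with a 21-nt variable region (0.43 μM) were reacted with each biotinyl-aminoacyl-oxazolone at 2–1250 μM in 50 μL HEPES/NaCl/KCl/MgCl2/CaCl2 buffer with 5% acetonitrile, pH 6.9–7.0, for 90 minutes at room temperature.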

In a further data set the test system is biotinyl-Ile-oxazolone. Nature of the data set: self-aminoacylation, catalytic enhancement (BIO) (fold over background); higher = more active; k-Seq, kA / k0A0; sequences stand for … in GGGAAUGGAUCCACAUCUACGAAUUC…UUCACUGCAGACUUGACGAAGCUG
An outline of the steps:
as §1

The next data set has as its system biotinyl-Met-oxazolone. Briefly: self-aminoacylation, catalytic enhancement (BMO) (fold over background); higher = more active; k-Seq, kA / k0A0; sequences stand for … in GGGAAUGGAUCCACAUCUACGAAUUC…UUCACUGCAGACUUGACGAAGCUG
An outline of the steps:
as §1

For another data set, the system named is biotinyl-Val-oxazolone. Briefly: self-aminoacylation, catalytic enhancement (BVO) (fold over background); higher = more active; k-Seq, kA / k0A0; sequences stand for … in GGGAAUGGAUCCACAUCUACGAAUUC…UUCACUGCAGACUUGACGAAGCUG
An outline of the steps:
as §1

The next data set deals with biotinyl-Leu-oxazolone. Nature of the data set: self-aminoacylation, catalytic enhancement (BLO) (fold over background); higher = more active; k-Seq, kA / k0A0; sequences stand for … in GGGAAUGGAUCCACAUCUACGAAUUC…UUCACUGCAGACUUGACGAAGCUG
An outline of the steps:
as §1

The next data set has as its system biotinyl-Trp-oxazolone. Nature of the data set: self-aminoacylation, catalytic enhancement (BWO) (fold over background); higher = more active; k-Seq, kA / k0A0; sequences stand for … in GGGAAUGGAUCCACAUCUACGAAUUC…UUCACUGCAGACUUGACGAAGCUG
An outline of the steps:
as §1

This sample holds only a part of the variants without activity.

As for “AAUACCCUGGUCAUCCAGUGA [Fam2.1 aminoacylation ribozyme variant]”, the self-aminoacylation with biotinyl-Phe-oxazolone was found to be 10.6; with biotinyl-Ile-oxazolone, 3.01; in the data set with biotinyl-Met-oxazolone it was 5.25; with biotinyl-Val-oxazolone, 2.88; in the data set on biotinyl-Leu-oxazolone, 4.96; in the data set on biotinyl-Trp-oxazolone, 5.84.
Take “AAUACCCUGGUCAUCGAGGGA [Fam2.1 aminoacylation ribozyme variant]”: the self-aminoacylation in the data set with biotinyl-Phe-oxazolone came out at 1.13; with biotinyl-Ile-oxazolone, 1.51; in the data set with biotinyl-Met-oxazolone, 1.18; in the data set with biotinyl-Val-oxazolone, 1.94; in the data set with biotinyl-Leu-oxazolone, 1.58; with biotinyl-Trp-oxazolone, 1.85.
With “AAUACCCUGGUGAUCGAGUGA [Fam2.1 aminoacylation ribozyme variant]”, the self-aminoacylation turned out to be 13.1 in the data set on biotinyl-Phe-oxazolone; 3.23 with biotinyl-Ile-oxazolone; 5.35 with biotinyl-Met-oxazolone; 3.02 in the data set on biotinyl-Val-oxazolone; 6.6 with biotinyl-Leu-oxazolone; 6.66 in the data set on biotinyl-Trp-oxazolone.
As for “AAUACCGUGGUCAUCGAGUGA [Fam2.1 aminoacylation ribozyme variant]”, the self-aminoacylation in the data set on biotinyl-Phe-oxazolone turned out to be 26.4; in the data set on biotinyl-Ile-oxazolone, 2.89; in the data set with biotinyl-Met-oxazolone it was 5.12; with biotinyl-Val-oxazolone, 2.81; with biotinyl-Leu-oxazolone, 4.83; in the data set on biotinyl-Trp-oxazolone it was 5.14.
For “AAUCACAUAGGUCAUCGGGUG [Fam2.2 aminoacylation ribozyme variant]”, the self-aminoacylation in the data set on biotinyl-Phe-oxazolone is 49.2; in the data set on biotinyl-Ile-oxazolone, 4.88; in the data set with biotinyl-Met-oxazolone it was 7.73; in the data set with biotinyl-Val-oxazolone, 4.18; with biotinyl-Leu-oxazolone, 7.16; with biotinyl-Trp-oxazolone it was 6.45.
With “AAUCACCUAGAUCAUCGGGUG [Fam2.2 aminoacylation ribozyme variant]”, the self-aminoacylation in the data set on biotinyl-Phe-oxazolone was 9.55; with biotinyl-Ile-oxazolone, 2.75; in the data set on biotinyl-Met-oxazolone it was 2.41; in the data set on biotinyl-Val-oxazolone it was 2.68; in the data set on biotinyl-Leu-oxazolone, 2.55; in the data set on biotinyl-Trp-oxazolone it was 3.99.
For the sequence “AAUCACCUAGGCCAUCGGGUG [Fam2.2 aminoacylation ribozyme variant]”, the self-aminoacylation amounted to 25.5 in the data set on biotinyl-Phe-oxazolone; 2.88 in the data set with biotinyl-Ile-oxazolone; 3 with biotinyl-Met-oxazolone; 3.86 with biotinyl-Val-oxazolone; 3.01 with biotinyl-Leu-oxazolone; 5.04 with biotinyl-Trp-oxazolone.
Regarding “AAUCACCUAGGGCAUCGGGUG [Fam2.2 aminoacylation ribozyme variant]”, the self-aminoacylation is 28 in the data set on biotinyl-Phe-oxazolone; 3.31 in the data set on biotinyl-Ile-oxazolone; 3.75 with biotinyl-Met-oxazolone; 3.49 in the data set on biotinyl-Val-oxazolone; 3.93 in the data set on biotinyl-Leu-oxazolone; 5.34 in the data set with biotinyl-Trp-oxazolone.
Turning to “AAUCACCUAGGUAAUCGGGUG [Fam2.2 aminoacylation ribozyme variant]”, the self-aminoacylation in the data set with biotinyl-Phe-oxazolone is 14.1; with biotinyl-Ile-oxazolone, 2.64; in the data set with biotinyl-Met-oxazolone, 2.67; with biotinyl-Val-oxazolone, 2.08; in the data set on biotinyl-Leu-oxazolone it was 3.17; in the data set on biotinyl-Trp-oxazolone it was 4.18.
As to “AAUCACCUAGGUCAGCGGGUG [Fam2.2 aminoacylation ribozyme variant]”, the self-aminoacylation was 28.9 in the data set on biotinyl-Phe-oxazolone; 4.05 in the data set with biotinyl-Ile-oxazolone; 4.61 with biotinyl-Met-oxazolone; 2.9 in the data set with biotinyl-Val-oxazolone; 4.16 in the data set on biotinyl-Leu-oxazolone; 4.58 in the data set with biotinyl-Trp-oxazolone.
Take “AAUCACCUAGGUCAUCGGGAG [Fam2.2 aminoacylation ribozyme variant]”: the self-aminoacylation in the data set with biotinyl-Phe-oxazolone was 1.94; in the data set on biotinyl-Ile-oxazolone it was 1.67; in the data set on biotinyl-Met-oxazolone it was 1.89; with biotinyl-Val-oxazolone, 2.17; in the data set with biotinyl-Leu-oxazolone, 1.51; with biotinyl-Trp-oxazolone it was 1.55.
Turning to “AAUCACCUAGGUCAUCGGGUG [Fam2.2 aminoacylation ribozyme variant]”, the self-aminoacylation in the data set on biotinyl-Phe-oxazolone was found to be 42.9; with biotinyl-Ile-oxazolone it was 5.67; in the data set on biotinyl-Met-oxazolone, 7.92; with biotinyl-Val-oxazolone it was 5.65; with biotinyl-Leu-oxazolone, 9.15; in the data set with biotinyl-Trp-oxazolone, 8.58.
With “AAUCACCUAGGUCAUCGGGUU [Fam2.2 aminoacylation ribozyme variant]”, the self-aminoacylation with biotinyl-Phe-oxazolone worked out at 11.5; in the data set on biotinyl-Ile-oxazolone, 4.1; in the data set with biotinyl-Met-oxazolone it was 5.39; with biotinyl-Val-oxazolone it was 3.65; with biotinyl-Leu-oxazolone it was 6.71; with biotinyl-Trp-oxazolone it was 5.39.
“AAUCACCUAGGUCAUCGGUUG [Fam2.2 aminoacylation ribozyme variant]”: the self-aminoacylation was determined as 5.05 in the data set with biotinyl-Phe-oxazolone; 1.44 in the data set with biotinyl-Ile-oxazolone; 1.74 with biotinyl-Met-oxazolone; 1.29 in the data set with biotinyl-Val-oxazolone; 1.66 in the data set on biotinyl-Leu-oxazolone; 1.69 with biotinyl-Trp-oxazolone.
As for “AAUCACCUAGGUCUUCGGGUG [Fam2.2 aminoacylation ribozyme variant]”, the self-aminoacylation with biotinyl-Phe-oxazolone was 46.9; in the data set on biotinyl-Ile-oxazolone, 3.79; in the data set on biotinyl-Met-oxazolone, 4.54; in the data set on biotinyl-Val-oxazolone, 3.98; in the data set with biotinyl-Leu-oxazolone, 5.09; with biotinyl-Trp-oxazolone, 6.75.
For the sequence “AAUCACCUAUGUCAUCGGGUG [Fam2.2 aminoacylation ribozyme variant]”, the self-aminoacylation in the data set on biotinyl-Phe-oxazolone is 23.4; in the data set on biotinyl-Ile-oxazolone it was 3.28; in the data set with biotinyl-Met-oxazolone, 4.23; in the data set on biotinyl-Val-oxazolone, 3.29; with biotinyl-Leu-oxazolone it was 4.9; in the data set on biotinyl-Trp-oxazolone, 6.14.
For “AAUCCCCUGGUCAUCGAGUGA [Fam2.1 aminoacylation ribozyme variant]”, the self-aminoacylation in the data set on biotinyl-Phe-oxazolone was 34.4; in the data set with biotinyl-Ile-oxazolone it was 3.35; in the data set on biotinyl-Met-oxazolone it was 6.29; in the data set with biotinyl-Val-oxazolone, 3.96; with biotinyl-Leu-oxazolone it was 6.5; in the data set with biotinyl-Trp-oxazolone it was 5.97.
Take “AAUCGCCUAGGUCAUCGGGUG [Fam2.2 aminoacylation ribozyme variant]”: the self-aminoacylation in the data set on biotinyl-Phe-oxazolone turned out to be 72.9; with biotinyl-Ile-oxazolone, 6.97; with biotinyl-Met-oxazolone it was 10.4; in the data set with biotinyl-Val-oxazolone it was 8.02; in the data set on biotinyl-Leu-oxazolone, 9.78; with biotinyl-Trp-oxazolone, 10.
For the sequence “AAUGACCUAGGUCAUCGGGUG [Fam2.2 aminoacylation ribozyme variant]”, the self-aminoacylation with biotinyl-Phe-oxazolone worked out at 26.1; in the data set with biotinyl-Ile-oxazolone, 3.66; with biotinyl-Met-oxazolone, 4.56; with biotinyl-Val-oxazolone, 3.56; with biotinyl-Leu-oxazolone it was 4.85; with biotinyl-Trp-oxazolone it was 5.22.
Turning to “AAUUUCGCUAAUAGUCGCAAG [Fam3.1 aminoacylation ribozyme variant]”, the self-aminoacylation in the data set with biotinyl-Phe-oxazolone was found to be 2.64; in the data set on biotinyl-Ile-oxazolone, 2.19; with biotinyl-Met-oxazolone it was 1.94; in the data set on biotinyl-Val-oxazolone, 1.88; in the data set on biotinyl-Leu-oxazolone, 2.24; in the data set on biotinyl-Trp-oxazolone it was 1.9.
On to “AAUUUUGCAAAUAGUCGCAAG [Fam3.1 aminoacylation ribozyme variant]”, for which the self-aminoacylation in the data set with biotinyl-Phe-oxazolone is 2.73; in the data set on biotinyl-Ile-oxazolone, 2.33; in the data set on biotinyl-Met-oxazolone, 2.02; in the data set on biotinyl-Val-oxazolone, 2.31; in the data set with biotinyl-Leu-oxazolone, 1.51; in the data set with biotinyl-Trp-oxazolone, 2.48.
For “AAUUUUGCUAACAGUCGCAAG [Fam3.1 aminoacylation ribozyme variant]”, the self-aminoacylation is 3.07 with biotinyl-Phe-oxazolone; 1.88 in the data set on biotinyl-Ile-oxazolone; 1.28 with biotinyl-Met-oxazolone; 1.58 in the data set on biotinyl-Val-oxazolone; 1.87 in the data set on biotinyl-Leu-oxazolone; 1.88 in the data set with biotinyl-Trp-oxazolone.
Turning to “AAUUUUGCUAAUACUCGCAAG [Fam3.1 aminoacylation ribozyme variant]”, the self-aminoacylation is 1.5 in the data set on biotinyl-Phe-oxazolone; 1.5 with biotinyl-Ile-oxazolone; 1.01 in the data set on biotinyl-Met-oxazolone; 1.35 in the data set with biotinyl-Val-oxazolone; 1.47 in the data set with biotinyl-Leu-oxazolone; 1.03 with biotinyl-Trp-oxazolone.

The values above are taken from the supplement of paper PMC9233669.
